The assay concerns the target SARS-CoV-2 Spike, BA.1 variant of concern, 21-amino-acid truncated form (SARS-CoV-2 (BA.1)) (UniProt P0DTC2).
The substance SA58 VH T53L A61S, VL N95V (antibody) showed an IC50, neutralisation of BA.1 Spike pseudovirus of 11 µg/mL.

The substance SA58 VH T53L A61S (antibody) displayed an IC50, neutralisation of BA.1 Spike pseudovirus of 12 µg/mL. As to SA58 VL S54T (antibody), the IC50, neutralisation of BA.1 Spike pseudovirus amounted to 12 µg/mL.

For the origin of these results see article PMC10769282.
